The values below come from the domain aggregation screens of Martell et al. (2025).

The series can be described thus: soluble fraction after stress (log2 fold change); higher = more stays soluble; pooled small domains, quantitative proteomics. Conditions: stress: 75 degC.
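Further: 20 min heating vs room temperature control held 20 min.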

Regarding “HMDYGSISFINWSIEVLSVIKTRLDRGDKIIDEVSGEKYTASSFEKFVRKNFSSYIFSQVYAEDHKK”, the “soluble fraction (log2)” value is -2.73.
For the sequence “HMDYHTIQTGDKGDEVLRLQQALAEYGYYEGDLDGRFGQQTRRAVERFQYSHGLTADGIAGRNTLSVLYD”, the “soluble fraction (log2)” value was -0.181.
Next, “HMDYIITHYPDNKRFETQVDGVVAFVQYRLSGDKLDIIHTIVPPAIGGRGIAAALVKYAYDYAIENGMK”: -2.13.
The result for “HMDYKSKLQELVQTEKRTVEYKLVDESGPAHNKSFTFEVVISGIKYGSGTGASKKIAEQNAAKEALEKLA” reads -0.277; that for “HMDYKSTLQELVQTVKKSVTYEVIDEEGPSHNKTFTSIVKIDGIVMGKGTAGSKKASEQEAARDALSKR”, 0.42; that for “HMDYLYHNGKEIDQGSIMYKMEDYSDGIFELQSAKYADGTELDEKELEELESTQELIDWVMIDFVS”, 0.675.
Regarding “HMDYNSYGLTERELELVDYVLKGYSRKEMAEASGLKVNTIGSYMKKIYRKLNIHNRTELKERFI”, the “soluble fraction (log2)” value is -0.119.
“HMDYNYLVFVTNTGPRSIAVEDLEMTVSDGKLVVSSGADGETFDLSTLTKMYFSDAAVVSINDV”: the “soluble fraction (log2)” value was -1.1.
The result for “HMDYQYILVDVKDRIATVTINRPEYSNAFARESYYEIADAMNTLGARDDVGVIVITGAGKHFSAGGDIKRF” reads -0.777.
The result for “HMDYYKILGLSTSATLDQIKKAFRQLAIEFHPDKNPNNPTAEDKFQRISEAYAVLSNPEKRAEYDRSY” reads -0.0123.
Next, “HMEAAETAVVTGTIVNIRSGPTLDFEAFAQVKQGDRLPVLDKFYNWYYVKLPSGVNGWISGQLVRIEQ”: -2.86.
As to “HMEAELNSLVKTYENMKPKAAAQVFEELDMDVLLDVVERMKEKKLAPILAQVTPTRAKEITYELTQRR”, the “soluble fraction (log2)” value is -0.102.
As to “HMEAFDYLGRRTRDLLERQGWTTVPLVRDAYLAVPGGERLLQVPGFGRKSLREVRRWLWLQIGDPRFE”, the “soluble fraction (log2)” value was -1.25.
The result for “HMEAIYKKNKNLIHTVIRDNFPFLIDTADYEDAFQEGSIGLIRAIDRFDDGLEYKFSSYAYTAIRNQIA” reads -1.15; that for “HMEALGLSPRQVDVLRLLVEGRSNKMIMRELELSESTVKTHLQAIFRRLGVSSRTQAVVAAARLGL”, -1.2; that for “HMEALSAREIEILQALETGASNRELAKMLFISEATVKTHLVHIYQKLGVGTRTAAITEARERRV”, -2.1.
Next, “HMEANAYFDAYPDVAAEWARLSGSDEGKATLSAIGVTTPQQFAQYHYTTFGSKENRNAPVGYTP”: 0.072.
For the sequence “HMEANPLTDREKEVLELVADGKNTKEIAQELSIKSGTVRNYISMILEKLEVKNRIEAITRSKEKGWF”, the “soluble fraction (log2)” value was -0.161.
Next, “HMEAPMPIFWRPQFRIGHDDIDADHRYLILLINTVELVLRFPDDPRNVELALTELRRYAEDHFEREER”: -0.0783; “HMEAQAHYDAIYKAHPNADSIAQSAEFKAWVDAQPSVVRNAYWQLFDPKEGGTAEQIVEVFDAFVKSS”: 0.327; “HMEDDIRSSIRTLDQFISKNQITLSKDVKNYILQLLSNDRMVTINELEKIKIYYDSNENIDLDTVKILLN”: -0.796.
Take “HMEDEEILNEIRHTEQYVYYFGNYIMEHHVSRGLSKEKVIASLARELQIEIADIREDFDGMIEQIKTNILN”: the “soluble fraction (log2)” value is -0.329.
The result for “HMEDESSIERYLGSGAIKGIGPSLAARIVKKFGKDTFRIIEQEPERLAEIKGISERKAMEISTLMEEK” reads -0.056; that for “HMEDGRLPPPGTVLRREYKGRAVFVRVLPKGFEFEGEVYRSLSAIAAKVTGSHWNGFRFFGLHE”, -3.01; that for “HMEDHMVVFGKGGRITRLPDKATVLEYLDAANFFASRSSVVKVNGKLASLDQTLRDGDSIEIVD”, -0.407.
As for “HMEDINAVLAENLRRLRESRRLSLDAVARLTGVSKSMLGQIERGEVNPTVSTMWKIAGGLKVNFTALFRRE”, the “soluble fraction (log2)” value is -3.79.
Take “HMEDIQPSVIFQNNMIDGFKKFGVSFLQNRRNVNVNTLNGLASAGTYPKWQQLLVNKISYIDMLLSTGG”: the “soluble fraction (log2)” value came to 0.0954.
The result for “HMEDKIIVTVPGEYHLERIDRFLAANLEEDLSRSLIQRYIRENLITVNGEAVRANYKVKTDDEILITFPQ” reads -0.842; that for “HMEDLAERLDNLSTMYAKMDPVRAAQVLLESKNKSENIEVLKRLKPKSLGLILENMPPREAYDYVSELQ”, 0.0743; that for “HMEDLGYVKVASQTAAIRKSAAVQAGQIGTVHEGETYRYLGEEEGWYLVEYNGQKAYISWDDGEL”, -0.323.
Next, “HMEDMMKALLDVVRAQHTATEGSEERPFDINDIIDMALNITGRPEEPEEQQELSDTIQKLAESLAPDIFP”: -0.424; “HMEDNKLKNEIKNELVSHLEKPYSVEDLADALKYHGSAAFKLIVQELAILERERAVVVTHDGNFKINSS”: -1.11.
The result for “HMEDPAVYYKILQIPPDASLSEIHRAFEKITSAWDPERYPHISSWKETSAKKLQEIRNAYEKLLILRETG” reads -0.269; that for “HMEDPFLWVEKLGSSDWIEREESAEKLLEAGEASVEALRTALTHPDLEVRERVRELLSVISPL”, 0.409.
Consider “HMEDPRVTEIKNLQQDLAKKFKPTQGPASASDAVERVTAITTVMTKVAALPEDLRSEAMQPGKKM”, for which the “soluble fraction (log2)” value is -0.327.
Next, “HMEDQFWQNRAEMALASARRAGRIVTYAEMADAADIPAPQRIHKLTLWLEATMRQDHASGQPLRAALV”: 0.0883; “HMEDQITNQQFTMTKQSILDLLVKKSYPPYELANELHLKKEEVLPIIRFLIAENEIHFKDGMLHLPH”: -1.01; “HMEDQLDSLKDIIYDYLENNELYYNDLQEFKKIIIENMEFIHPNLNHKLIDNNFFKLINFKLEYNF”: -0.152.
The result for “HMEDSSSILNRMRKLIALLNRASEAYYKENKEIISNFEYDRLYDELLGLESRSNTVLSGSPTYKV” reads -1.87.
With “HMEDTFEYPVSVNGKLRFKIELPVSMEKDEIRNIVLNDERAKKWLATGTLTNLIVVPNRIINIVIK”, the “soluble fraction (log2)” value is -0.528.
Regarding “HMEDTSTLSIKHKIKELINQESPQAILSDDKLVELLAAQGIKIARRTIAKYRETMNIPTSAERKRQKRPP”, the “soluble fraction (log2)” value is 0.0599.
Regarding “HMEDVTLSLVVGEDLDGERLDVFLTWKLDRTRSQVQALIRDGKVRLEQGQRARPSMVVRSGMGISVSLEPR”, the “soluble fraction (log2)” value is -2.15.
The result for “HMEDYYKILGVSKDASIDDIKKSYRKLSLQNHPDRNKSPQASENFAKINSAYEVLSDQRKKRQYDMQQSM” reads -0.073; that for “HMEEAQWEFKWENTDSAEIHGPHSSSEMLKWQENSFFAKGVYVRKVGGDTTDFTDGKRIDFDLY”, -0.705; that for “HMEEDPILVAQRFLNIFRQLHIFDQQRREEFNSMILALPPEIRGTFGVLPGGSVLQEYVDELEISKGMA”, -1.11.
As for “HMEEDPVISQAQRQALFKLAHDHFGQEEGNKVILRLIGEHGLRSTTNMTASVYKTVTDALIQVIESMVEG”, the “soluble fraction (log2)” value is -0.45.
Next, “HMEEEDELALFLREERKNYDLTLTDVHEKTGIPQKVLKEFQWGDAQLTDRQRYTLTQYVEEAREYFQENA”: 0.161.
The result for “HMEEEVKVPKIKGLTEAEAKAKLKSEGLESGTARSAYSDTVEEGHIISQSIQEGTKVPKGTAVSYEVSKGK” reads 0.149; that for “HMEEGKVKRMAMDMVDAFYDKVSAMVDDNNDLGRSVVDAWDDEEENPPEYMLDDETRAILVNAGKIEPE”, 0.298; that for “HMEEHSLRKQEMLRIIEALEQLTPKEKTVVVLYYFKGVLFKDIAMLLDVTEGRISQLHTAAMGRLKKLMD”, -0.14.
